Test results from PMC6423718.

Target: bZIP domain of chicken CREB3 (chCREB3), Residues 206-280, His-tagged (chicken)
Experiment: crystal structure; DNA-free form; sitting-drop vapor diffusion at 4°C, 43% v/v MPD, 100 mM tri-sodium citrate pH 5.6, 10 mM magnesium chloride; molecular replacement; 3.95 Å

stoichiometry N: 2
Substance: bZIP domain of chicken CREB3 (chCREB3), Residues 206-280, His-tagged (domain or fragment)
